The domain aggregation screens of Martell et al. (2025)

assay: soluble fraction after stress (log2 fold change); higher = more stays soluble; pooled small domains, quantitative proteomics; details: stress: 50 degC
Procedure, shortened: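 The measure of aggregation propensity here is the base-two logarithm of the fold change in the soluble amount of each protein after stress. A higher value means more of that protein stays in solution. Stress was applied at 50°C to pooled libraries of small protein domains, read out by high-throughput quantitative proteomics.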

| Sequence | soluble fraction (log2) |
| --- | --- |
| HMQQDGSSSLGENMLNQELQARGVVPSEIPQEVWERVIQEAGKKSKREIYADIGLGRSLAAGFAQRLAA | 0.261 |
| HMQNELAEARSQLAERKNIDQAKLILMKKRNISEPEAYKLLRSHAMQTNRRVAEVAESIITAESLLG | 0.0394 |
| HMNSTGVYQRPDGFWEYRFTLSINGKKLPRRKSTDLMGNKLKTKREAIKAREEAIIALRTEKTI | -0.994 |
| HMDVNHVIIDHKGNSIQAIIDSIDLDNVYYQSKIKKESEVIDIDKVYFIFNDFDRVYHYDWSYYENL | -0.138 |
| HMVNPDAPAPLYIVNGKETDKNIALAIKPEDVQDVRIIKNTVALQVYGEKGKNGVVIINTKPGV | 0.206 |
| HMQISMQNIASVKIDDLSDEQIQEFSTKYTAAGYSFPDVENVAKQKGMPSSEIEKLRQRVLTAQNTQEK | -0.163 |
| HMIIYGLNPVKDFINLFPNKISTLFISKNKLSDSEMKSVVNINTVYVSDAELKRITGTTKHQSLAAEID | -1.21 |
| HMADEEEIMVPQVVGKTYDEAKSELENAGFKVEKNEKTSDKASGTVISQSINGGAKKGTSVTLTVSKGN | 0.149 |
| HMTSRFITTEEGTLYVDADGRKVSGWQTIDGSRYYFDEHGIRQSGTIEVNGETYVLDEDGVL | 0.0747 |
| HMSPSQFRSKSLLVEINFASRQMDGEILQGDYAGKRLSELTEAEVQELTAWLKQSDRESFVLLQAYLLRSG | -0.881 |
| HMSLTEDELFHALTIYANREGINIGATELKYLLTHYARNLGKLIELINQVSQAATMQKKPITIPLIKHS | -0.428 |
| HMGKPAGLIRELGNHPEDEKPVTLNNGRFGPYVKHGKVMASLTKADSPDDITFDRAIELIAIKAEKMAAKG | 0.184 |
| HMQASISVDEAKSIALNYAKFTADQVVYTKSELDYDDGRAEYEIEFYAGGKEYSFTIDAVSGTVLEMEI | -1.7 |
| HMLMKILTDALEKMSPEELKELAEATGVKNTSSITPETMVGVFQAVFRVGGFKSYQLTLIIVNAVLKA | -0.126 |
| HMRKVTDTHELSSVVKSVIDQWEEKAAEYRAGKSGLLGFFVGEVMKKTGGAADPEAAKSLLQDRLD | 0.18 |
| HMKSLLDQINGIGAIRKRALLNHFGSARAVESASLDEIKSVEGVEAKVAKKIYNFFHEYKNMLR | -1.12 |
| HMAPLATIHVSSLSQKPFYLYGTFEDRRGNHLFFLEQIMGENKSIPVAMPSSAINPKIHASLTPPKG | -0.32 |
| HMGQLVVHQIKGEASRLDKFLVVNIPKYSRSVWREMINNGSVQVNGRVVKPHLLVKEGDIITWSS | -0.383 |
| HMNADRIVGQTAKVIHPITPDEKGRVMVDNLDWAAAAQNRGESFEVGEEVSIVRIEGVTVYVQK | 0.209 |

| Sequence | soluble fraction (log2) |
| --- | --- |
| HMKIYDQVVDRIKDRISKGDMPQGSALPPERQLIDELNVSRSSLREGFRILEMMGLIESIPGKGRFVRTSR | -0.235 |
| HMDGASLLDIDGDGKVTPTIDGLLLMRWQFGTRGAALIGGISFPAGALRTTVNAIELHMRRLSETT | -0.844 |
| HMGIDISAFSETALQVLRLQAAGYTAKEISEKLHITPRTVKYHASQNYRKLDAKNLVDAVQIAQALHI | -1.26 |
| HMRTNVDISPKILEWVLSQVRNRTTNDVIETIQIWIKGEKPPTFNQVEKISKATGVPLGYFFLKTPPVED | -0.805 |
| HMFIEHSKYKLSFKYNQLGKISNVINSNNGIIMDKHFDQNITLLAKLTENTFQEIIKHFPTIIIKRL | -3.19 |
| HMLFKGDTREENVILEFLSKNGTTSSDAIIKQTGLSASEFNQAITMLELKGLALNNGGEKWSL | -0.0779 |
| HMTSPRRLYALIVEHVGKDGVMHRSDVENVLAKVESEMDVDDLLDQLEINGTIIRRQDGTWQLL | -0.197 |
| HMAIGDYYINASALNVRSGEGTNYRIIGALPQGQKVQVISENSGWSKINYNGQTGYIGTRYLSKTPV | -0.00322 |
| HMLKNYATPEQRAQLDMLKDKGIIGENELMQLGKYPSQDKASEVLENHADAVKMLDSDEISNRAEAIRSHD | 0.134 |
| HMEKAISSLTLEEAKKRLEMVRSEKDASLQIYKETGSETARVTAENYGKEENSLLLHISEMSNIV | -0.469 |
| HMDYYKILGLSTSATLDQIKKAFRQLAIEFHPDKNPNNPTAEDKFQRISEAYAVLSNPEKRAEYDRSY | -0.0923 |
| HMGGGFLVPSLVGKSLEEARSLSELRGFKLEVGDYVISSEYPAGRVTRQNPANGAKGQEGDVIKVEVSS | 0.0353 |
| HMETKPTELMLDVHKLRIGMFVYLDLGWMDHPFPLNRFKISTNAQIEQIKGLRLKQVKVMTALSDPASLL | -3.19 |
| HMDTITDSYTLEKGKLRAKVMEYELPESKKKEYSATFEYRGVYYHMIGIIEKADFEEILKNLHFP | -0.165 |
| HMAQASEPMLALIRLKWWEEQINSPVKGDSLPLLSQLNSHISAGYLSRSQVTSLIQRWQDYA | -0.787 |
| HMRADRLISMLMLLQARGKITAEELAVELGVSQRTIYRDIEALSFAGVPVYAERGPGGGIGLLEPY | -1.7 |
| HMAVEETFTITWLDRDGTVLEVDENVLKGTMPSFDGHIPPHDGLEFKGWDPEVVPVEGDATYTATYKA | -0.176 |
| HMDRENNITAGREILEKELSRLALNMKMVNLQDYAARFNVKHSDDILAGIGAGDIRPAHIVNAIAEKLT | 0.144 |
| HMDMAYEVVKAFHDLQDYKDVKGGKVYHHYDVGDTYPRQGLDPAPDETRIEELLSSGNAQGVPLIAEV | 0.0503 |
